This note sets out measurements from publication PMC8897273 (Journal of molecular biology, 2022).

Data set [1] addresses human polyadenylate binding protein 1 (PABP1) (human, UniProt P11940 1-636). As to the kind of experiment: native gel or EMSA. (In general: In EMSA bound probe runs differently from free probe, usually more slowly.)
The target in data set [2] is T1, PABP1 (Homo sapiens, UniProt P11940 1-636). As to the kind of experiment: EMSA.
In data set [3] the target is T1, PABP1. The experiment in a line: EMSA. The source holds these as a separate data set.

Where two headings read alike, the source gives them in different places.

T1 sequence (P11940 whole entry): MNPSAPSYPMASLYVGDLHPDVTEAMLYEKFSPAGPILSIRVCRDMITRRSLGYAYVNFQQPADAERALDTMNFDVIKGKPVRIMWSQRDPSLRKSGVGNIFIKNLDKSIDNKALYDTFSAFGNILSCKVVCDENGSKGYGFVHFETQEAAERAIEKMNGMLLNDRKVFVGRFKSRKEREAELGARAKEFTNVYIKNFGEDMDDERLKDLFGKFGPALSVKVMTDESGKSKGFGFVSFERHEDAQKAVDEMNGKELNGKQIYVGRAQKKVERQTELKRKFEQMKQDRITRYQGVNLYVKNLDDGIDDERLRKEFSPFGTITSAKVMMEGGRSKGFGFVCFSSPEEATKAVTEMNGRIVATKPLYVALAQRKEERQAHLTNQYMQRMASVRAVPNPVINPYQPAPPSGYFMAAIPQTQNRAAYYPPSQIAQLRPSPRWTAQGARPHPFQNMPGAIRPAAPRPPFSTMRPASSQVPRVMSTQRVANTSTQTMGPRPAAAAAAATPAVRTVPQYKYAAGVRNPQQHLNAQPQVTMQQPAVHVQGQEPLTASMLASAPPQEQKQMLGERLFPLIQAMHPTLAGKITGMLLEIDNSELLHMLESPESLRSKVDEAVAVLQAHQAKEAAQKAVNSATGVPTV
Sequence of human polyadenylate binding protein 1 (PABP1) (P11940 whole entry): as above

B1: human eIF4G1 fragment (88–653) (domain or fragment, UniProt Q04637-1 88-653, looked up)
chain: MMIPSQISYPASQGAYYIPGQGRSTYVVPTQQYPVQPGAPGFYPGASPTEFGTYAGAYYPAQGVQQFPTGVAPTPVLMNQPPQIAPKRERKTIRIRDPNQGGKDITEEIMSGARTASTPTPPQTGGGLEPQANGETPQVAVIVRPDDRSQGAIIADRPGLPGPEHSPSESQPSSPSPTPSPSPVLEPGSEPNLAVLSIPGDTMTTIQMSVEESTPISRETGEPYRLSPEPTPLAEPILEVEVTLSKPVPESEFSSSPLQAPTPLASHTVEIHEPNGMVPSEDLEPEVESSPELAPPPACPSESPVPIAPTAQPEELLNGAPSPPAVDLSPVSEPEEQAKEVTASMAPPTIPSATPATAPSATSPAQEEEMEEEEEEEEGEAGEAGEAESEKGGEELLPPESTPIPANLSQNLEAAAATQVAVSVPKRRRKIKELNKKEAVGDLLDAFKEANPAVPEVENQPPAGSNPGPESEGSGVPPRPEEADETWDSKEDKIHNAENIQPGEQKYEYKSDQWKPLNLEEKKRYDREFLLGFQFIFASMQKPEGLPHISDVVLDKANKTPLRPLDT
With B1, the binding result in data set [1] is on record as “binds”.
Consider AAAAAAAAAAAAAAAAAA (ssRNA) [Poly(A)18], for which the binding result in data set [2] was “binds”.
With GCUAUCCAGAUUCUGAUU (ssRNA) [ssCR1], the binding result in data set [3] is “no binding”.
